In PMC11984393:

Biological target: CD8 (T-cell surface marker) (Mus musculus) (UniProt P01731)
Assay: flow cytometry
Settings: 30 min, live-cell binding, 30 min incubation, buffer, salt, pH and temperature not given in the material

Chain of UniProt P01731 (P01731 whole entry): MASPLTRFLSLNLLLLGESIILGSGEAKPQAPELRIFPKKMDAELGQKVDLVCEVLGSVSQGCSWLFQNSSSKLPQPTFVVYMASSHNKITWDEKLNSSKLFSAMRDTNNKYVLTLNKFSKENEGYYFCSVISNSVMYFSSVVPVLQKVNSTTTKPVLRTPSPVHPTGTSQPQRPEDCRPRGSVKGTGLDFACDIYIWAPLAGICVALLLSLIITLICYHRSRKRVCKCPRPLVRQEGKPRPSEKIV

Row | Sequence | binding signal (% positive cells) (negative control) | binding signal (% positive cells)
1 | TTTTTAAGTAATGTATTTAAATTGCGAACTACTACTCTCTCTATATATTGCGAACTACTACTCTCTCTATATTAAAGGAAGGATCTCA [Apt-random-FAM] | 0.74 | –
2 | TTTTTTTTTTCCAGAGTGACGCAGCAACAGAGGTGTAGAAGTACACGTGAACAAGCTTGAAATTGTCTCCGACAGAGGTGGACACGGTGGCTTTTAGT [Apt-CD8-FAM] | – | 44.4
